Consider 54 variants from the RNAGym collection of RNA variant scans (doi:10.7554/elife.80360).

To fix the notation:
B1: Twister Ribozyme (parent)
chain: AACACUGCCAAUGCCGGUCCCAAGCCCGGAUAAAAGUGGAGGGGGCGG

Variants of B1 are the subject of this data set. In words: self-cleavage, relative activity (ratio to wild type); higher = more cleavage; co-transcriptional.
As for AACACUGCCAAUGCCGGUCCAAAGCCCGGAUAAAAGUGGAUGGGGCGG [C21A G41U], the self-cleavage was 0.678.

AACACUGCCAAUGCCGGUCCAAAGCCCGGAUAAAAGUGGACGGGGCGG [C21A G41C]: the self-cleavage amounted to 0.457.

With AACACUGCCAAUGCCGGUCCCAAGCCCGGACAAAAGUGGAGCGGGCGG [U31C G42C], the self-cleavage was found to be 0.413.

As to AACACUUCCAAUGCCGGUCCCAAGCCCGGAUGAAAGUGGAGGGGGCGG [G7U A32G], the self-cleavage came out at 0.0756.

AACACUGCCAAUGCCGGUCCCAAGCCCGGAUAGAAGUCGAGGGGGCGG [A33G G38C]: the self-cleavage came to 0.878.

For AACACUGCCAAUGCCGGUCCCAAGCCCGGAUAAAAGCGGAAGGGGCGG [U37C G41A], the self-cleavage is 0.134.

Take AACACUGCCAAUGCCUGUCCCAAGCCCGGCUAAAAGUGGAGGGGGCGG [G16U A30C]: the self-cleavage is 0.804.

As to ACCACUGCCAAUGCCGGUCCCAAGCCCGGAUAAAAGUGGCGGGGGCGG [A2C A40C], the self-cleavage turned out to be 0.07.

Turning to UACACUGCCAAUGCCGGUCCCAAGCCCGGAUAAAAGUAGAGGGGGCGG [A1U G38A], the self-cleavage came to 0.0686.

As for AACACUGCCAAUGCCGGUCGCAAGCCCGGAUAAAAGUCGAGGGGGCGG [C20G G38C], the self-cleavage was 0.108.

On to AACACUGCCCAUUCCGGUCCCAAGCCCGGAUAAAAGUGGAGGGGGCGG [A10C G13U], for which the self-cleavage is 0.677.

Turning to CACACUGCCAAUGCCGGUCCCAAGCCCGGAUAAAAGUGGAGGAGGCGG [A1C G43A], the self-cleavage is 0.135.

On to AACACUGCCAAUGCCGGUCCCAACCCCGGAUAAAAGUGGAGGGGGCAG [G24C G47A], for which the self-cleavage was found to be 0.0965.

For the variant AACAGUGCCAAUGCCGGGCCCAAGCCCGGAUAAAAGUGGAGGGGGCGG [C5G U18G], the self-cleavage was 0.0734.

Regarding AACACUGCCAAUGCCGGUCGCAAGCCCGGAUAAAAGUGGAGGCGGCGG [C20G G43C], the self-cleavage was 0.101.

With AACACUGCCAAUGCCGGUCCCAAGCCCGGAUAAAAGUGUUGGGGGCGG [G39U A40U], the self-cleavage is 0.158.

On to AGCUCUGCCAAUGCCGGUCCCAAGCCCGGAUAAAAGUGGAGGGGGCGG [A2G A4U], for which the self-cleavage came to 0.117.

On to AACAUUGCCAAUGCCGGUCCCAACCCCGGAUAAAAGUGGAGGGGGCGG [C5U G24C], for which the self-cleavage was 0.0979.

AACACUGCCAACGCCGAUCCCAAGCCCGGAUAAAAGUGGAGGGGGCGG [U12C G17A]: the self-cleavage came to 0.532.

For AACACUACCAAUGCCGGUCCCAAGACCGGAUAAAAGUGGAGGGGGCGG [G7A C25A], the self-cleavage came out at 0.0809.

On to AAAACUGCCAAUGCCGGUCCCAAGCCCGGAUAAAAGUGGAGGGGGCCG [C3A G47C], for which the self-cleavage was found to be 0.145.

On to AACACUGCCAACGCCUGUCCCAAGCCCGGAUAAAAGUGGAGGGGGCGG [U12C G16U], for which the self-cleavage came out at 0.799.

AACACUGCCAAUGCCGCUCCCAAGCCCGGAUAAAUGUGGAGGGGGCGG [G17C A35U]: the self-cleavage is 0.138.

Turning to AACACUGCCAAUGCCGGUCCCAAACGCGGAUAAAAGUGGAGGGGGCGG [G24A C26G], the self-cleavage stood at 0.0568.

Take AACACGGCCAAUGCCGGUCCCAAGCCCGGAUAAAAGUGGAGGGGCCGG [U6G G45C]: the self-cleavage was 0.104.

For the variant AACACUGCCAAUGCCAGUCCCAAGCCCGGAUAAAAGUGGAGGGGGAGG [G16A C46A], the self-cleavage was found to be 0.994.

As for AACACUGCCAAUGCCGGUCCCAAGACCGGAUAAAAGGGGAGGGGGCGG [C25A U37G], the self-cleavage amounted to 0.0674.

AAUACUGCCAAUGCCGGUCCCAAGCCCGGAUAAAAGUGUAGGGGGCGG [C3U G39U]: the self-cleavage is 0.066.

Consider AACACUGCCAAUGCCGGUCCCAAGCCCGGAUAAAAGUGGAGGGGGCGA [G48A], for which the self-cleavage was 0.986.

For AUCACUGCCAAUGCCGGUCCCAAGCCCGGAUAAAAGUGGAGGGAGCGG [A2U G44A], the self-cleavage was 0.615.

AACACUGCCAUUGCCGGUCCCAAGCCCGGAUAAAAGUGGAGGUGGCGG [A11U G43U]: the self-cleavage was 0.606.

AACACUGCCAAUGCCUGUCCAAAGCCCGGAUAAAAGUGGAGGGGGCGG [G16U C21A]: the self-cleavage was 0.137.

For the variant AACACUGCCAAUGCCGGUCCCAAGCCCGGGUAAAACUGGAGGGGGCGG [A30G G36C], the self-cleavage is 0.422.

As to AACACUGCAAAUGCCGGUCCCGAGCCCGGAUAAAAGUGGAGGGGGCGG [C9A A22G], the self-cleavage is 0.101.

For the variant AACUCUGCCAAUGCCGGUCCCAAGCCCGGAUAAAAGUGGAGGGUGCGG [A4U G44U], the self-cleavage stood at 0.146.

For ACCACUGCCAAUGCCGGUCCCAAGCCCGGAUAAAAGUUGAGGGGGCGG [A2C G38U], the self-cleavage is 0.0613.

In the case of AACACUGCCAAUGCCGGUCCCAAGCCCGGAUCAAAGUGGAGCGGGCGG [A32C G42C], the self-cleavage is 0.326.

AACACUGUCAAUGCCGGUCCCAAGCUCGGAUAAAAGUGGAGGGGGCGG [C8U C26U]: the self-cleavage is 0.061.

For the variant AACACUGCAUAUGCCGGUCCCAAGCCCGGAUAAAAGUGGAGGGGGCGG [C9A A10U], the self-cleavage was found to be 0.646.

As for AACACUGCCAAUGCCGGUCCCAAGCCUGGAUAAAAGUGGAGGGGGGGG [C27U C46G], the self-cleavage was found to be 0.914.

As to AACACUGCCAAUGCCGGUCCCGAGCCCGGAUAAAAGUGGAGGGGGUGG [A22G C46U], the self-cleavage amounted to 0.286.

On to AACACUGCCAAUGCCGGUCCCAAGACAGGAUAAAAGUGGAGGGGGCGG [C25A C27A], for which the self-cleavage was determined as 0.0772.

AACACUGCCAAUGCCGGUCCCAAGCCCGGACAAAAGUGGAGGGGGCGC [U31C G48C]: the self-cleavage was 1.2.

Turning to AACACUGCCAAUGCCGGUCCCAAGCCCUGAUAAAAGUGCAGGGGGCGG [G28U G39C], the self-cleavage stood at 0.15.

Regarding AACACUGCCAAUGCCGGUCCCAAGCCCGGAUACAAGUGGAGGCGGCGG [A33C G43C], the self-cleavage stood at 0.107.

For the variant AACACUGCCAAUGCCGGUCCCAAGCCCGGAUAAAAGGGAAGGGGGCGG [U37G G39A], the self-cleavage is 0.126.

AACACUGCCAAUGCCGGUGCCAAGCUCGGAUAAAAGUGGAGGGGGCGG [C19G C26U]: the self-cleavage was 0.0735.

For the variant AACACUGCCAAUGCCGGUACCAAGCCCGGAUAACAGUGGAGGGGGCGG [C19A A34C], the self-cleavage came out at 0.0755.

As for AACACUCCCAAUGCCGGUCCCAAGCCCGGAUAACAGUGGAGGGGGCGG [G7C A34C], the self-cleavage turned out to be 0.118.

As for UACACUGCCAAUGCCGGUCCCAAGCCCGCAUAAAAGUGGAGGGGGCGG [A1U G29C], the self-cleavage is 0.0876.

Turning to AACACUGCCAAUUCCGGUCCCAAGCCCGGAUAAAAGUCGAGGGGGCGG [G13U G38C], the self-cleavage turned out to be 0.6.

With AACUCUGCCAAUGCCAGUCCCAAGCCCGGAUAAAAGUGGAGGGGGCGG [A4U G16A], the self-cleavage amounted to 0.0873.

On to AACAUUGCCAAUGCCGGUCCCAAGCCUGGAUAAAAGUGGAGGGGGCGG [C5U C27U], for which the self-cleavage worked out at 0.483.

On to UACACUGCCAAUGCCGGUCCCAAGCCCGGAUAAAAGUGGAGCGGGCGG [A1U G42C], for which the self-cleavage stood at 0.0572.
